In assay [1] the target is T1, hPD-1-his (human, UniProt Q15116 25-167).
T1 construct: domain: IgV domain; monomer in solution; biotin-labelled where captured by streptavidin; also called biotin-hPD-1-his
The assay can be described thus: ELISA, PD-1-his on streptavidin. On the technique in general: An ELISA detects its analyte on a solid surface through an enzyme-linked reagent.

The target in assay [2] is T2, hPD-1-Fc (human, UniProt Q15116 25-167).
T2 construct: domain: IgV domain; also called human PD-1-Fc; not shown: human IgG1 Fc
T2 sequence (Q15116 25-167 limits assumed): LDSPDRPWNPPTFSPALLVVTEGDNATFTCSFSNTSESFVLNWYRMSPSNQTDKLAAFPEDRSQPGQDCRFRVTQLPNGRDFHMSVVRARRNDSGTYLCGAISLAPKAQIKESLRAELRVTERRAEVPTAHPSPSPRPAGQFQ
Description: blocking ELISA, hPD-1 to hPD-L1. Also noted: unit not given here.

For assay [3], the target named is T2, hPD-1-Fc. Description: ELISA, hPD-1-Fc coated.
The target of assay [4] is T1, hPD-1-his. Description: ELISA, PD-1-his on anti-his.
For assay [5], the target named is T1, hPD-1-his. The assay can be described thus: ELISA, hPD-1-his on anti-his.
The target of assay [6] is T2, hPD-1-Fc. The assay can be described thus: ELISA, hPD1-Fc coated.
The target of assay [7] is T2, hPD-1-Fc. The assay can be described thus: blocking ELISA, hPD-1-Fc to hPD-L1-Fc.
In assay [8] the target is T1, hPD-1-his. Description: ELISA, biotin-hPD-1-his on streptavidin.

Numbering of substitutions follows the chain as printed.

T1 sequence (Q15116 other isoform, or with tags, fused parts or gaps limits assumed): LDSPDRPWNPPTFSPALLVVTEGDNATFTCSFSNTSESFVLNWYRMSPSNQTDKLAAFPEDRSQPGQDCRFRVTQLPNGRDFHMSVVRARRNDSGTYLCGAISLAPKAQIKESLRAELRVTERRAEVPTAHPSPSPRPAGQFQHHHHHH

B1: 32A11 (antibody, V domains shown)
VH: EVQLLESGGGLVQPGGSLRLSCAASGFTFSSYWMSWVRQAPGKGLEWVSAISGSGGSTYYADSVKGRFTISRDNSKNTLYLQMNSLRAEDTAVYYCASSPLQWVDVWGQGTTVTVSS
VL: DIQMTQSPSSLSASVGDRVTITCRASESISIWLAWYQQKPGKAPKLLIYDASNLETGVPSRFSGSGSGTNFTLTISSLQPEDFATYYCQQADSFPFTFGPGTKVDIK
In the case of B1, the “OD at 10 nM” value with hPD-1-his [1] is 0.919 OD; in the assay with hPD-1-Fc [3], 0.921 OD; in the assay with hPD-1-his [4] it was 1.03 OD. Besides, the “Inhibition at 50 nM” value with hPD-1-Fc [2] was 91.1.

B2: 39B3 (antibody, V domains shown)
VH: B1 VH
VL: B1 VL with E27Q, S30G, I31P, N70D, D92N
In the case of B2, the “OD at 10 nM” value amounted to 0.963 OD with hPD-1-his [1], 1.08 OD with hPD-1-Fc [3] and 0.617 OD in the assay with hPD-1-his [4]. In the assay with hPD-1-Fc [2], the “Inhibition at 50 nM” value turned out to be 92.9.

B3: 38C11 (antibody, V domains shown)
VH: B1 VH
VL: B1 VL with E27Q, I31R, Y49S, N53T, L54V, E55Q, T56S, N70D, D92N
B3: the “OD at 10 nM” value with hPD-1-his [1] amounted to 1.05 OD; with hPD-1-Fc [3] it was 1.02 OD; with hPD-1-his [4] it was 0.404 OD. Further, in the assay with hPD-1-Fc [2], the “Inhibition at 50 nM” value was 92.7.

B4: 32D2 (antibody, V domains shown)
VH: B1 VH
VL: B1 VL with E27Q, S28G, I31R, D50E, N53T, E55Q, T56S, N70D, D92Y, P100Q
Take B4: the “OD at 10 nM” value with hPD-1-his [1] came out at 0.932 OD; with hPD-1-Fc [3], 0.922 OD; with hPD-1-his [4] it was 0.591 OD. Further, the “Inhibition at 50 nM” value with hPD-1-Fc [2] came to 91.7.

B5: 39B11 (antibody, V domains shown)
VH: B1 VH
VL: B1 VL with E27Q, I31S, D50E, N53R, E55Q, T56S, N70D, D92N
On to B5, for which the “OD at 10 nM” value with hPD-1-his [1] worked out at 0.99 OD; with hPD-1-Fc [3], 1.08 OD; with hPD-1-his [4], 0.482 OD. The “Inhibition at 50 nM” value with hPD-1-Fc [2] was 93.3.

B6: 33G8 (antibody, V domains shown)
VH: QVQLVQSGAEVKKPGSSVKVSCKASGGTFSSSVISWVRQAPGQGLEWMGGIIPIFGTANYAQKFQGRVTITADESTSTAYMELSSLRSEDTAVYYCAREGLGCSGGSCYSGYYYGMDVWGQGTTVTVSS
VL: DIVMTQSPLSLPVTPGEPASISCRSSQSLLHSNGYNYLDWYLQKPGQSPQLLIYQASTLGSGVPDRFSGSGSGTDFTLKISRVEAEDVGVYYCMQGTHWPYTFGQGTKLEIK
Take B6: in the assay with hPD-1-his [5], the EC50 (in general, the midpoint of the concentration-response curve) stood at 0.149 nM and the “OD450 at 10 nM” value was found to be 0.487 OD450. Moreover, in the assay with hPD-1-Fc [6], the EC50 turned out to be 0.113 nM and the “OD450 at 10 nM” value turned out to be 0.9 OD450. In the assay with hPD-1-Fc [7], half-maximal inhibition (IC50) required 1.81 nM, the “Inhibition % at 5.6 nM” value is 89.9% and the “Inhibition % at 50 nM” value came out at 90.5%. In the assay with hPD-1-his [8], the EC50 stood at 0.197 nM and the “OD450 at 10 nM” value is 0.909 OD450.

B7: 34C1 (antibody, V domains shown)
VH: B6 VH
VL: DIVMTQSPLSLPVTPGEPASISCRSSESLLYSNGNTYLDWYLQKPGQSPQLLIYEVSNRASGVPDRFSGSGSGTDFTLKISRVEAEDVGVYYCMQGTRWPYTFGQGTKVEIK
With B7, in the assay with hPD-1-his [5], the EC50 worked out at 0.0866 nM and the “OD450 at 10 nM” value was 0.521 OD450. In the assay with hPD-1-Fc [6], the EC50 stood at 0.147 nM and the “OD450 at 10 nM” value was 0.926 OD450. Also, in the assay with hPD-1-Fc [7], the IC50 – broadly, the concentration needed to halve the response being measured – is 2.01 nM; the “Inhibition % at 5.6 nM” value was 89.1%; the “Inhibition % at 50 nM” value was 89.3%. Moreover, in the assay with hPD-1-his [8], the EC50 stood at 0.233 nM and the “OD450 at 10 nM” value came out at 0.945 OD450.

These data come from patent US20230416363A1 (KADMON, published 2023).
